± gives the uncertainty stated by the source.
Test: amyloid nucleation score (Sup35N fusion, yeast selection) (log enrichment); library NNK3; higher = more nucleation; inactive = no reads after selection
In short: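 Three technical output replicates were used for random libraries. Psi-negative yeast expressing peptides of 20 random codons fused to Sup35N were induced with 100 μM copper sulfate for 24 hours and grown 7 days at 30°C on medium lacking adenine and uracil, and input and output plasmid inserts were Illumina-sequenced, excluding sequences with under 100 input reads. The nucleation score is the DiMSum log enrichment of output over input reads, centred on the mode score of non-aggregating sequences.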

Substance | amyloid nucleation score
RRFVFVYINVPC | inactive
RRFVVGYRDLMMRFIVRHGE | 0.403 ± 0.24
RRGVRPNATMSA | inactive
RRKLRGALTVEMVFSPVYRR | inactive
RRMLNAVEMSYRVGKFSFCW | inactive
RRNDRYVCFAMMSRRSGVYL | inactive
RRNYRSFKDLLFHDYTFMDS | inactive
RRRVSKANPGDVMIWSVIAK | inactive
RRSSARGIRYMYSLNCNGEL | inactive
RRVTRSSKAYRVGVSWDGIG | 0.047 ± 0.33
RRWQVCVAGQDSEGTVKVML | 0.108 ± 0.56
RRYDNYRYSHRMFFKRFQAV | inactive
RRYSRVKVRRLFMRNNLMLN | 0.283 ± 0.15
RRYVDRYEAIWWCFCIRKLF | inactive
RSAFYHNVGGKNRVSWSIL | inactive
RSCCLQPT | inactive
RSFFSWAMNMRGLARWAWME | 1.78 ± 0.11
RSFHYRIACESNLAVEVHFR | 1.74 ± 0.066
RSGLHVEGLRSLHRGKVGPC | inactive
RSGWCHLPQVRNMWTVIIDG | -0.648 ± 1.1
RSHECGGSLMFVKLGCG | inactive
RSHLWGRLASYAMGTHAG | inactive
RSHQKEMCVNFNLPVNFSHR | inactive

Substance | amyloid nucleation score
RSHRIF | inactive
RSILRNSLSTQMHIGSVSLM | inactive
RSLVCRFLTGTDMVCGIGVT | inactive
RSLYASLCVRIFDGLYCCMK | inactive
RSMHLTWYW | 1.4 ± 0.11
RSMNLRSKLMSACGGFMS | inactive
RSNLRLGSRDKPAIQL | inactive
RSNTPPGISLARPFYPKNRV | inactive
RSNWPSTILTSWSARCHWLS | inactive
RSPEFCMS | inactive
RSQDNCR | inactive
RSRAFGDGKNWMHCRRYVM | inactive
RSSFKG | inactive
RSSSPIRVHTINGDVYTDVV | inactive
RSSVLLS | inactive
RSTCCWIR | inactive
RSTFRRLLRCFGFWRRWSCI | inactive
RSTQRTLPQ | inactive
RSTVYWFWRSSELLALRLHR | inactive
RSVATLYGLRSCFCLVCSKL | 1.41 ± 0.12
RSVVRFWFFLINRHVYELSL | inactive
RSVYYRSLLGTNYCSFLLFD | inactive
RSYFYTCDSLDALHVHLASH | inactive

Substance | amyloid nucleation score
RSYLN | inactive
RTAWHMCLFCLNVTNLSWLM | 2.15 ± 0.052
RTDCV | inactive
RTFFYWIKLAINFSNVCRGF | inactive
RTFIKAKLP | inactive
RTGEFMRGLMVGDSVKWVF | inactive
RTIHVGWVMAIIGTALRCCM | inactive
RTKIAFTRVLFATKLWNETN | inactive
RTLVPGTHR | inactive
RTLYMLRIALGHGPVTLEI | inactive
RTLYSQNFK | inactive
RTMAFLIFS | 0.172 ± 0.56
RTPVKGDRKSWTDRPISTAY | inactive
RTRKQRCHRCVWMLLGDYQR | inactive
RTSAHGNYFSQLESLRKMML | inactive
RTSYVNLLYIMLDLLIRFRS | inactive
RTWLGWEGNIIPSETGTYRS | inactive
RVCSALCIRVLALFGCCSVE | 1.05 ± 0.19
RVGRSR | -0.176 ± 1.4
RVGTAF | -0.517 ± 0.84
RVGVACKCFIQCLYFVFISI | inactive
RVHFALYSV | 1.65 ± 0.062
RVHLGGMYRWVCEVNV | inactive

Substance | amyloid nucleation score
RVIDQMNPQGGWDLTFDSRR | inactive
RVLDNTSSCRERNVGGDSFA | inactive
RVPACAYACLAYGGYDDMAG | inactive
RVPYR | inactive
RVQMVLLMNTSFLNVLIMCI | -0.375 ± 1
RVSRAGMIMGPMLLFNKYFD | inactive
RVVAFHIANDLLLSLKKS | 1.39 ± 0.093
RVVLHITGLLPSSKKGVRGE | 0.433 ± 0.25
RVVLMWDYLIDF | 1.08 ± 0.16
RVVLTVFMFLIQSENACKLH | inactive
RVVPMVTVGKIRKNLMD | inactive
RVWRSNSPGAEKWTLLTKTL | inactive
RWCFCWICHYLDVLCHYCLH | inactive
RWCYLTEKKFSGLFNL | inactive
RWNEAHITSYVYSRTSMWVF | inactive
RWNMLIDVHLNVYHRQDRWC | 0.636 ± 0.23
RWQRLSRHGISDSPLAREAA | -0.917 ± 1.8
RWSVSSQTMLSIINDISFFG | 0.099 ± 0.2
RWTLYSLSTYYQLCF | 0.685 ± 0.12
RWVICEFGR | inactive
RWVKSKFAV | inactive
RYCNAWLAGKSIFAPFVGTM | inactive
RYFSW | inactive

Substance | amyloid nucleation score
RYGFADSYMLFLFRYTPSSG | inactive
RYILRSL | inactive
RYKRTGIWCFECNRVLVEVF | inactive
RYNWVYDFVLNRSSYWCW | inactive
RYRSGLDPFRCSYFNSPFYS | inactive
RYSSNRLTLMWDCIEGGSAW | 1.03 ± 0.14
RYTFGTAIERVLQVILNEMT | inactive
RYVRCFLYTYKNFFD | inactive
RYVSSLLSNLRGQKNCVSVL | inactive
RYVTCNLEINTWDRVRGWHV | 1.16 ± 0.16
RYYLGMHFINCMRVRVP | inactive
SAESKISIVWMEVRINNIFR | 1.67 ± 0.065
SAGMNMLYMYECKSSSMGFC | inactive
SALPQH | inactive
SALTIVVLFG | 0.775 ± 0.2
SANGMSNRRYSDHHLYVVSA | inactive
SAPNYVRSSLFCN | inactive
SASEKTDSNVVEFCVGRCI | inactive
SASLLN | inactive
SAVVMRSQADSFDYLN | inactive
SAYAGYKRLGASEVILLSPY | inactive
SAYTNANGLNVSLFLMHHAC | inactive
SAYVLDGYMEISQILVIWSL | inactive

Substance | amyloid nucleation score
SCAAPMIILTDKSCGRRGLG | inactive
SCEFYDSVLWSYFKMAMFAL | -0.698 ± 0.8
SCFRFKTQLTIGLVEEISCA | inactive
SCGHFIGCWMGTQVRIYGKQ | inactive
SCIIWKSWQV | 1.14 ± 0.095
SCKELLPFWARELLRFNRYC | inactive
SCKGNVFVSSGWEFGAYFTG | 0.751 ± 0.23
SCKLSHFEVTMECLEYFWMM | inactive
SCMSYDLRQL | inactive
SCPIRDSGTGSYL | inactive
SCQKIALIWIRLTTDMRRRC | inactive
SCRLWHKRANRVGF | inactive
SCRVTPVLR | inactive
SCTVKSAGGFVSHRFNGSMG | inactive
SCVGNLENTIYNMVVRNCCY | inactive
SCWKTHSAKNSNGS | inactive
SCYISNFLSGCKLFMNRFL | inactive
SDLGHWHIFRYLAAIASRRK | inactive
SDLYTIGVVPTLTFINAPCI | inactive
SDSSYSYTVF | inactive
SDTSSCCYTCVYISYVDHFF | 2.41 ± 0.052
SDVIGLLFGEYNISVVLRGR | inactive
SDWIRNG | inactive

Substance | amyloid nucleation score
SEALCWIVTSVCRLRVFLV | inactive
SECYKWRIFCNILNR | 2.36 ± 0.058
SELRWYL | inactive
SERKMVSKRTLKGYFRRQVI | inactive
SESCFDMMPCLVGLKSERGQ | inactive
SESMCVIVSRIIWCGKVSNV | inactive
SESYPTRLSGRKILTRALT | inactive
SEVTSRNHTGYSRSRLLGMY | inactive
SEVVIWFAWYMSLLNPGLYA | inactive
SEYLVMLTGWVTTHLQMLWV | inactive
SFAWVS | inactive
SFDCRRSSRL | inactive
SFDILTAVVT | inactive
SFFRMSFC | 2.91 ± 0.06
SFGAKCARGQDSTASVFNNG | -0.33 ± 1.1
SFIRASKVCFDSHGCWFGLG | inactive
SFLTDMPKTKVYCAMNLPMI | -0.121 ± 0.66
SFMKQIFSYARLVRISKSVG | inactive
SFMRRCNVCIRLYSLAFDMT | 0.542 ± 0.23
SFNFSRHLVLF | inactive
SFNITAWMMFMNVIQGYSI | 2.38 ± 0.059
